The target in test [1] is IL-23R (coated on beads, Example 1). Kind of test: cell-based or functional assay.
Test [2] deals with T1, mouse IL23Ra (coated on beads) (mouse, UniProt Q8K4B4 24-372, limits assumed).
T1 construct: also called mouse IL-23R alpha subunit
T1 sequence (looked up): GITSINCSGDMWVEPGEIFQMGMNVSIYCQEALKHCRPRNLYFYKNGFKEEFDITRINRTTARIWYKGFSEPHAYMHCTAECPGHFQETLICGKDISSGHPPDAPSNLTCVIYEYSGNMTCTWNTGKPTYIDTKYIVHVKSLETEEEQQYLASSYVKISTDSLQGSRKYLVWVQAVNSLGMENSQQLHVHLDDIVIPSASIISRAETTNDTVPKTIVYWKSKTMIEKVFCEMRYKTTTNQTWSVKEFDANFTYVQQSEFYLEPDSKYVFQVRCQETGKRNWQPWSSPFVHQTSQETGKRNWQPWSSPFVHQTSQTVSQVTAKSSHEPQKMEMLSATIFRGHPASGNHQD
Kind of test: ratio of the EC50 values on mouse and human IL23Ra-coated beads (flow cytometry). The method, then:
(§1) The indicated scFVs were produced in mammalian 293tcells, purified and biotinylated. Biotinylated scFvs were then incubated at 25° C. with mouse or human IL23Ra-coated beads for 30 min in PBS. After cold washing, bound IL23R bound scFV was detected by incubation with APC-labelled Streptavidin and analysis of the samples on a Flow-cytometer. An EC50 was calculated based on the median fluorescence intensity from each condition. Calculation, curve fitting and EC50 calculation was performed via Graphpad Prism.

Test [3] addresses T2, human IL23Ra (coated on beads) (human, UniProt Q5VWK5 24-353, limits assumed).
T2 construct: also called human IL-23R alpha subunit
T2 sequence (looked up): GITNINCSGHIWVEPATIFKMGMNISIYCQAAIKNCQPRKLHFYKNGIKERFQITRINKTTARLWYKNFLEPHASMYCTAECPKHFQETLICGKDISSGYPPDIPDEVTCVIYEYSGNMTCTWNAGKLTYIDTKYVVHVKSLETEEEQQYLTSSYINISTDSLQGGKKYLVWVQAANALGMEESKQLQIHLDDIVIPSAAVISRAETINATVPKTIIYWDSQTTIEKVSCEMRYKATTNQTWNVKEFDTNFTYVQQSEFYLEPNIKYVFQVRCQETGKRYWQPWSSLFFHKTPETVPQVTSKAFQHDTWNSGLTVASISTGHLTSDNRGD
As to the kind of experiment: flow cytometry; biotinylated scFv on human IL23Ra-coated beads, detected with APC-streptavidin, EC50 from median fluorescence intensity. As for the experimental part: as §1

The target in test [4] is T1, mouse IL23Ra (coated on beads). Kind of test: flow cytometry; biotinylated scFv on mouse IL23Ra-coated beads, detected with APC-streptavidin, EC50 from median fluorescence intensity. The method, then: as §1

Sequence of IL-23R (coated on beads, Example 1) (Q5VWK5 whole entry): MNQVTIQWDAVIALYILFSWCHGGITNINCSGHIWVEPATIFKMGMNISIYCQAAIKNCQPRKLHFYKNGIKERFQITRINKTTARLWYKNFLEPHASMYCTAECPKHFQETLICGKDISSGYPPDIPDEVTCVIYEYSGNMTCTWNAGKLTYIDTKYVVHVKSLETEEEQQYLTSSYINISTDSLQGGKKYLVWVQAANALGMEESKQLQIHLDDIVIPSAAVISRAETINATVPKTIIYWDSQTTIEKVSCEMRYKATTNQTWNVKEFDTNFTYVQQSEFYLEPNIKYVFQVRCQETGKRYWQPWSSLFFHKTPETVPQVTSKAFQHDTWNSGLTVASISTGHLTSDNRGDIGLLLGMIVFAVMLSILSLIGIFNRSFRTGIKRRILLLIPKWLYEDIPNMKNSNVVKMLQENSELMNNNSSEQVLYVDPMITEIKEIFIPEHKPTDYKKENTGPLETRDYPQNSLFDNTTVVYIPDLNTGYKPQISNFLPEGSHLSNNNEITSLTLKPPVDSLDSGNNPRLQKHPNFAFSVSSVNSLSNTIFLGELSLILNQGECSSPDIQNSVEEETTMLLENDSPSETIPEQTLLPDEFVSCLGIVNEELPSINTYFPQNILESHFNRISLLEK

B1: CAR #2 (anti-IL-23R chimeric antigen receptor with scFv IL23RLamS4-G3, CD8 hinge, CD8 TM, CD28, CD3 zeta) (other)
chain: SYPYDVPDYASQSVLTQPPSVSGAPGQRVTISCTGSSSNIGAGYDVHWYQQLPGTAPKLLIYGNNNRPSGVPDRFSGSKSGTSASLAITGLQAEDEADYYCQSYDTGLSAWVFGGGTKLTVLGGGGSGGGGSGGGGSQLQLQESGPGLVKPSETLSLTCTVSGGSITSSNYYWGWIRQPPGKGLEWIGSIYYSGNTYYNPSLKSRVTISVDTSKNQFSLKLSSVTAADTAVYYCAREWSPYESEGFDYWGQGTLVTVSSTTTPAPRPPTPAPTIASQPLSLRPEACRPAAGGAVHTRGLDFACDIYIWAPLAGTCGVLLLSLVITLYCRSKRSRLLHSDYMNMTPRRPGPTRKHYQPYAPPRDFAAYRSRVKFSRSADAPAYQQGQNQLYNELNLGRREEYDVLDKRRGRDPEMGGKPRRKNPQEGLYNELQKDKMAEAYSEIGMKGERRRGKGHDGLYQGLSTATKDTYDALHMQALPPR
B1: the “CD69+ cells (CAR-Treg activation) after 24 h with IL-23R coated beads, fold increase” value in test [1] came out at 3.6 fold.

B2: anti-IL-23R scFv IL23RLamS4-G3 (scFv)
scFv: QSVLTQPPSVSGAPGQRVTISCTGSSSNIGAGYDVHWYQQLPGTAPKLLIYGNNNRPSGVPDRFSGSKSGTSASLAITGLQAEDEADYYCQSYDTGLSAWVFGGGTKLTVLGGGGSGGGGSGGGGSQLQLQESGPGLVKPSETLSLTCTVSGGSITSSNYYWGWIRQPPGKGLEWIGSIYYSGNTYYNPSLKSRVTISVDTSKNQFSLKLSSVTAADTAVYYCAREWSPYESEGFDYWGQGTLVTVSS
modifications: biotinylated (sites not given)
notes: also called hmIL23R LamS4-G3; scFv of the present disclosure
For the molecule B2, the “fold difference in binding affinity between human IL23R and mouse IL23R” value in test [2] is about 1.4 fold. Also, the values for the EC50 in test [3] and in test [4] were 37.6 nM and 53.1 nM, respectively.
